According to publication PMC9376891 (Nature Communications, 2022):

B1: Rae1(31-368)-Nup98(157-213) heterodimer (complex)
chain 1: DIEVTSSPDDSIGCLSFSPPTLPGNFLIAGSWANDVRCWEVQDSGQTIPKAQQMHTGPVLDVCWSDDGSKVFTASCDKTAKMWDLSSNQAIQIAQHDAPVKTIHWIKAPNYSCVMTGSWDKTLKFWDTRSSNPMMVLQLPERCYCADVIYPMAVVATAERGLIVYQLENQPSEFRRIESPLKHQHRCVAIFKDKQNKPTGFALGSIEGRVAIHYINPPNPAKDNFTFKCHRSNGTNTSAPQDIYAVNGIAFHPVHGTLATVGSDGRFSFWDKDARTKLKTSEQLDQPISACCFNHNGNIFAYASSYDWSKGHEFYNPQKKNYIFLRNAAEELKPRNKK
chain 2: not shown
notes: also called Rae1-Nup98; Rae1-Nup98 complex

How the values were obtained:
Experiment in all cases: ITC
Conditions in all cases: both partners purified
[1] = target: T1, Rae1(31-368)-Nup98(157-213) heterodimer (human, UniProt P78406 31-368; P52948 157-213)
T1 construct: also called Rae1-Nup98; Rae1-Nup98 complex
T1 sequence (P52948 157-213, chain 2 of 2, one chain of several): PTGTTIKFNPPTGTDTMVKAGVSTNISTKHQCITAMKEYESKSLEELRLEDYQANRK

[2] = target: B1; remark: listed apart in the source
Target sequence in this assay (P52948 157-213, chain 2 of 2, one chain of several): as above

[3] = target: B1; remark: listed apart in the source
Target sequence in this assay (P52948 157-213, chain 2 of 2, one chain of several): as above

MHV68-ORF10-CTT = target: T2, MHV68-ORF10-CTT (murine gammaherpesvirus 68)
T2 construct: source: synthetic peptide
T2 sequence (P52948 157-213): as the sequence (P52948 157-213, chain 2 of 2, one chain of several) above

Binder: RAITDGGESPMEWQTL [MHV-68 ORF10 CTT peptide]
- Kd [1]: 5710 nM

Binder: YSQLDEEQPM (source: synthetic peptide) [SARS-CoV-2 ORF6 C3 lacking the last three residues 59-EID-61 but retaining M58]
- Kd [1]: 87700 nM

Binder: YSQLDEEQPM (source: synthetic peptide) [SARS-CoV-2- ORF6-EID]
- Ka [2]: 11400 M⁻¹
- stoichiometry N [2]: 1.01

Binder: YSQLDEEQPMEID (source: synthetic peptide) [SARS-CoV-2 ORF6 C3 peptide]
- Kd [1]: 240 nM

Binder: YSELDDEEPMELD [SARS-CoV ORF6 C3 -YP]
- Kd [1]: 110 nM

Binder: ENKYSQLDEEQPMEID (source: synthetic peptide) [SARS-CoV-2 ORF6 C2]
- Ka [3]: 3.58e+06 M⁻¹
- Kd [3]: 270 nM
- stoichiometry N [3]: 1.17

Binder: YSELDDEEPMELDYP [SARS-CoV ORF6 C3 peptide]
- Kd [1]: 370 nM

Binder: YSELDDEEPMELD [SARS-CoV ORF6-YP]
- Ka [2]: 8.89e+06 M⁻¹
- stoichiometry N [2]: 0.62

Binder: DEEQPMEID (source: synthetic peptide) [SARS-CoV-2 ORF6 C4]
- Ka [3]: 2.25e+06 M⁻¹
- Kd [3]: 440 nM
- stoichiometry N [3]: 0.82

Binder: SLTENKYSQLDEEQPMEID (source: synthetic peptide) [SARS-CoV-2 ORF6 C1]
- Ka [3]: 2.62e+06 M⁻¹
- Kd [3]: 380 nM
- stoichiometry N [3]: 1.06

Binder: YSELDDEEPMELDYP [SARS-CoV ORF6 C3]
- Ka [2]: 2.69e+06 M⁻¹
- stoichiometry N [2]: 0.63

Binder: YSQLDEEQPMEID (source: synthetic peptide) [SARS-CoV-2 ORF6 C3]
- Ka [3]: 4.12e+06 M⁻¹
- stoichiometry N [3]: 0.9

Binder: DEMDTHDPNQLRY [VSV-M-NTE]
- Ka [2]: 8550 M⁻¹
- stoichiometry N [2]: 0.304

Binder: B1
- Ka (MHV68-ORF10-CTT): 175000 M⁻¹
